The values that follow come from patent US12109252B2, “Systems, methods and products for minimizing tissue reactions and tissue injury at an infusion site” (Cell and Molecular Tissue Engineering, LLC, priority 2016, dated 2024).

In data set [1] the test system is human peripheral blood mononuclear cells (PMBC). Description: Alamar Blue cell viability of human PBMC. Type of data set: cell-based. As for the experimental part: For these in vitro studies, generally either human or mouse leukocyte cells or cell lines were cultured in vitro in the presence or absence of insulin preservatives or fibrils at various concentrations. at selected times cell viability and or cell activation has (cytokine expression) was determined. The results of these studies are presented below the general work flow for these studies are located in FIG. 61. […] Insulin diluent contains the formulation components of commercial insulin solutions but without the insulin protein itself. For these studies we utilized the work flow described in FIG. 61. […] At physiologic concentrations, both insulin formulation and insulin fibrils are toxic for human cells in vitro. […] The Protocol was: Hu-PBMC+insulin (72 hr)=>Assay Interleukin 8 (IL-8). […] The Protocol was Hu-PBMC+insulin (7 days)=>Assay Interferon gamma. […] The in vivo activation of these cells would cause inflammation and tissue destruction resulting in loss of effective CSII function.

The subject of another data set is human neutrophils. Description: Survival of human PMNs in serial dilutions. Type of data set: cell-based. To be noted: 3 days, 1:48 dilution. The text has this:
As the concentration increased, the number of cells surviving decreased for both insulin and insulin diluent.

In the next data set the test system is HMC-1 human mast cells. Description: Mast cell degranulation/activation. Type of data set: cell-based. To be noted: in vitro. The text has this: (§1) FIGS. 48-49 show the impact of insulin on mast cell viability and degranulation. Mast cells (MC) are key skin “sentinel” cells and are generally the first tissue cell population activated by tissue trauma triggering acute inflammatory or allergic reactions and serve a central role in chronic inflammation and wound healing. Recent results from our laboratory indicate that skin mast cells affect glucose sensor induced tissue reactions and CGM function (13).

The subject of the next data set is infusion site tissue. Description: Tissue toxicity of infusion (open loop CSII mouse model). To be noted: open loop delivery system.
Data set [2] concerns human peripheral blood mononuclear cells (PBMC). The data set can be described thus: In vitro morphology of human PBMC after exposure. The class given is cell-based. As for the experimental part:
FIG. 6. Toxicity of insulin and fibrils in vitro: Preliminary in vitro morphology of human peripheral blood mononuclear cells (PBMC) after exposure to control media, high (1.0 mg/mL), and low (0.1 mg/mL) concentrations of insulin or insulin fibrils (i.e. insulin degradation byproducts) FIG. 6). Healthy control cells [Left column] show a rounded morphology.

The next data set has as its system human PBMCs. The data set can be described thus: Pro-inflammatory cytokine expression by human PBMC in vitro. The class given is cell-based. As for the experimental part:
For these in vitro studies, generally either human or mouse leukocyte cells or cell lines were cultured in vitro in the presence or absence of insulin preservatives or fibrils at various concentrations. at selected times cell viability and or cell activation has (cytokine expression) was determined. The results of these studies are presented below the general work flow for these studies are located in FIG. 61.
FIG. 7. Our in vitro studies Insulin and excipients induced expression of pro-inflammatory cytokines in PBMC in vitro. […] Similar data has been obtained with human cell lines (THP-1) and mouse macrophages (MQ). This supports our belief that I/E can induce inflammation in vivo, and that chronic infusion of IFP can cause chronic inflammation and fibrosis.
For these studies we utilized the work flow described in FIG. 61. […] At physiologic concentrations, both insulin formulation and insulin fibrils are toxic for human cells in vitro. […] The Protocol was: Hu-PBMC+insulin (72 hr)=>Assay Interleukin 8 (IL-8). […] The Protocol was Hu-PBMC+insulin (7 days)=>Assay Interferon gamma. […] The in vivo activation of these cells would cause inflammation and tissue destruction resulting in loss of effective CSII function.

Another data set has as its system air pouch. Description: Leukocyte influx into murine air pouch model (lavage cell count). To be noted: injection or infusion into air pouch.
Another data set has as its system mouse mast cells. Description: Mast cell morphology/toxicity in vitro. To be noted: physiologic concentrations. Type of data set: cell-based. The text has this:
FIGS. 46-47 show the impact of insulin on mast cell morphology. At physiologic concentrations, both insulin formulations fibrils (not shown) are toxic to mouse mast cells in vitro.

Another data set relates to human mast cells. Description: Mast cell viability (alamar Assay). The class given is cell-based.
Description: as §1

Data set [3] has as its target Insulin degrading enzyme (IDE) (Homo sapiens, UniProt P14735). The data set can be described thus: Insulin degradation by insulin degrading enzyme +/- anti-proteases (PAGE). Type of data set: biochemical. As for the experimental part: (§2) To characterize the ability of purified proteases or leukocyte extracts to degrade FITC-insulin in vitro we analyzed the impact of cell culture supernatants and cell lysates on insulin degradation using 10-20% SDS-PAGE gels. This was performed +/−anti-protease cocktails to characterize proteases responsible for insulin degradation. The functional activity of individual leukocyte proteases was analyzed using protease PAGE gels +/−protease inhibitors. […] (FIG. 13a, 13b, 13c and FIG. 14).
(§3) In FIG. 53, I=insulin, T=Trypsin, E=Elastase, IDE-Insulin Degrading Enzyme, PMN=Triton X100 extract of human PMN, mwn=molecular weight marker.
(§4) In this example, we tested the ability of various anti-proteases to inhibit insulin degradation by leukocyte extracts and proteases.

A further data set deals with T1, Elastase (Homo sapiens, UniProt P08246).
T1 sequence (P08246 30-267): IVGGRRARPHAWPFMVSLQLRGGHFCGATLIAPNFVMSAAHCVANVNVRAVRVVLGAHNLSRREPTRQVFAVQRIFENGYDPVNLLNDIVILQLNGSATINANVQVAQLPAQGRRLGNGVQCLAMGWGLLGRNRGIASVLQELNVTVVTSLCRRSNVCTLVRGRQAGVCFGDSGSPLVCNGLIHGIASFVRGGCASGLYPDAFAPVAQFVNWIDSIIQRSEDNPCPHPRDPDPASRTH
The data set can be described thus: Insulin degradation by elastase +/- anti-proteases (PAGE). Type of data set: biochemical. As for the experimental part:
as §2, §3, §4

The subject of data set [4] is Triton X100 extract of human PMN. Description: Insulin degradation by PMN extracts +/- inhibitors (PAGE). Type of data set: biochemical.
Description: as §3, §4

In another data set the test system is Trypsin. The data set can be described thus: Insulin degradation by trypsin +/- anti-proteases (PAGE). The class given is biochemical. As for the experimental part: as §2, §3, §4
Data set [5] relates to leukocyte proteases including neutrophil elastase, trypsin, and insulin-degrading enzyme. The data set can be described thus: Insulin degradation by leukocyte proteases (SDS-PAGE) +/- inhibitors. To be noted: in vitro. The class given is biochemical. The method, then:
To characterize the ability of purified proteases or leukocyte extracts to degrade FITC-insulin in vitro we analyzed the impact of cell culture supernatants and cell lysates on insulin degradation using 10-20% SDS-PAGE gels. This was performed +/−anti-protease cocktails to characterize proteases responsible for insulin degradation. The functional activity of individual leukocyte proteases was analyzed using protease PAGE gels +/−protease inhibitors. This study clarifies the role of leukocytes in insulin therapy. (FIG. 13a, 13b, 13c and FIG. 14).

“Also recorded” adds a separate entry of the source.

Description for air pouch: For this model, sterile air was injected subcutaneously into mouse skin creating a sustained compartment (pouch) for injection of test agents (FIG. 2). At various times post-air/post-agent injection, the “air pouch” can be lavaged, and the cell and fluid content removed and characterized using standard technology (FIG. 2). After lavage, tissue reactions in the air pouch walls can also be determined using standard histopathology/immunohistochemistry (FIG. 2).
We adapted this model for the evaluation of tissue responses to infusion of insulin, excipients, factors, drugs and control solutions (e.g. saline). […] Initially, CD-1 mice received air injections (3 mL) into the dorsal site of the low back to induce the air pouch in each animal. On the following day individual mice received infusions of either saline or insulin diluent. […] Exudate was then centrifuged and a TC10 automated cell counter determined the total viable leukocyte cells. The potential inflammatory effect of insulin diluent was evaluated through the analysis on the mouse leukocyte count and exudate concentrations in the inflamed air pouch cavity.
Air was injected subcutaneously into the mouse skin creating a sustained compartment (pouch) for injection of diluent or saline (control). […] The resulting fluid was characterized for cell number (auto-hemo-cytometer), and cell type using fluorescence activated Cell sorting (FACS).
Description for infusion site tissue: Combined CSII and CGM mouse model (A B, C). Non-obese diabetic (NOD) mouse implanted with Abbott Navigator glucose sensor (GS) and a short polymer infusion set for CSII. The set and sensor were placed sufficiently far apart to avoid interference. Open Loop CGM and CSII insulin infusion system cage and assembly, that allows animal ambulation and mobility during simultaneous continuous glucose sensing and insulin infusion.
Tissue Toxicity of Insulin in vivo: Infusion: The sectioned polymer catheter wall is visible and marked with a black asterisk (*) in all tissues. […] Infusion was accomplished using the open loop delivery system described in FIG. 5.

Turning to “insulin: commercial insulin formulation: complete insulin (insulin plus preservatives)”, in [1] (3 days of exposure to increasing concentrations), the “cell viability (Alamar Blue assay)” value is reported as “decreasing cell viability”. For the same substance, in [1] (physiologic concentrations), the “toxicity for human cells in vitro” value is given as “toxic”. The “number of PMN's surviving vs buffer alone” value in the data set with human neutrophils is given as “significantly fewer cells surviving”. Besides, the “mast cell degranulation / activation” value is listed as “activate MCs” in the data set on HMC-1 human mast cells and “cause mast cell degrandulation” in the data set with HMC-1 human mast cells (listed as insulin formulations). The “tissue reaction at infusion site surrounding catheter” value in the data set with infusion site tissue is “extensive cell damage, inflammation and cellular infiltrate”. The PBMC morphology result is given as “tight contracted morphology indicative of cell death/dying” in [2] (high (1.0 mg/mL) concentration) and “spread, expanded morphology indicative of cell injury/activation” in data set [2] (low (0.1 mg/mL) concentration). Besides, the “pro-inflammatory activation of Hu-PBMC” value in the data set with human PBMCs (IL-8 72 hr, Interferon gamma 7 days) is “cause pro-inflammatory activation”. The “expression of pro-inflammatory cytokines including IL-6, IL-8 and TNFa” value in the data set on human PBMCs (PBMC in vitro) is “induce expression of pro-inflammatory cytokines”. Also, the “inflammation / tissue reactions in air pouch vs saline” value in the data set with air pouch is given as “cause tissue reactions”. Besides, the “toxicity to mouse mast cells” value with mouse mast cells was “toxic”. For the same substance, the “mast cell death (alamar Assay)” value in the data set with human mast cells (increasing concentration) was “increasing cell death”. For the same substance, in the data set on human mast cells (physiologic concentrations), the “toxicity to human mast cells” value is given as “toxic”. Also, the “degradation of insulin by insulin degrading enzyme” value in data set [3] was “cleaves insulin into several smaller peptides”. Moreover, the “degradation of insulin by elastase” value with Elastase is “cleaves insulin at many sites”.
In the case of aprotinin, the “inhibition of insulin degradation by PMN extracts” value in data set [4] was “blocked”. For the same substance, the “blocking of insulin degradation by trypsin” value with Trypsin is given as “blocked”. Also, the “reduction of activity of insulin-degrading leukocyte proteases” value in data set [5] is listed as “reduced”. The “blocking of insulin degradation by elastase” value at Elastase was “blocked”.
Consider “FITC-insulin: fluorescent insulin (FITC-insulin; Sigma, St. Louis, MO)”, for which, in the data set with Elastase, the “degradation of insulin by elastase” value is reported as “degraded”.
In the case of “AAT: alpha-1-antitrypsin, natural protease inhibitor”, the “inhibition of insulin degradation by PMN extracts” value in [4] is “completely inhibits; also recorded: blocked”. Further, the “blocking of insulin degradation by trypsin” value with Trypsin is “blocked”. Besides, the “reduction of activity of insulin-degrading leukocyte proteases” value in data set [5] is on record as “reduced”.
